# Data reported in article PMC4908968.
# Legend:
# [1] = target: Full-length (FL) MMTV integrase (IN), wild type (mouse mammary tumor virus (MMTV)); assay: SEC
# [2] = target: Full-length (FL) MMTV integrase (IN), wild type (mouse mammary tumor virus (MMTV)); assay: AUC
substance,measurement,setting,value
"Full-length (FL) MMTV integrase (IN), wild type (enzyme)",stoichiometry N,[1],2
same,stoichiometry N,[2],8
